This is an account of results in ChEMBL document CHEMBL2073844, “Pharmacological characterization of the murine and human orthologs of multidrug-resistance protein in transfected human embryonic kidney cells” (Mol Pharmacol, 1997).

Substrate in data set [1]: CCCCC/C=C\C\C=C/C=C/C=C/[C@@H](SC[C@@H](NC(=O)CC[C@H](N)C(=O)O)C(=O)NCC(=O)O)[C@@H](O)CCCC(=O)O
The data set is described as follows: cells, lysate or membranes named.

Substrate in data set [2]: C[C@]12CC[C@@H]3c4ccc(O)cc4CC[C@H]3[C@@H]1CC[C@@H]2O[C@@H]1O[C@H](C(=O)O)[C@@H](O)[C@H](O)[C@H]1O
The data set can be described thus: cells, lysate or membranes named.

B1: Multidrug resistance-associated protein 1 (Mus musculus) (protein)
chain: MALRSFCSADGSDPLWDWNVTWHTSNPDFTKCFQNTVLTWVPCFYLWSCFPLYFFYLSRHDRGYIQMTHLNKTKTALGFFLWIICWADLFYSFWERSQGVLRAPVLLVSPTLLGITMLLATFLIQLERRKGVQSSGIMLTFWLVALLCALAILRSKIISALKKDAHVDVFRDSTFYLYFTLVLVQLVLSCFSDCSPLFSETVHDRNPCPESSASFLSRITFWWITGMMVHGYRQPLESSDLWSLNKEDTSEEVVPVLVNNWKKECDKSRKQPVRIVYAPPKDPSKPKGSSQLDVNEEVEALIVKSPHKDREPSLFKVLYKTFGPYFLMSFLYKALHDLMMFAGPKILELIINFVNDREAPDWQGYFYTALLFVSACLQTLALHQYFHICFVSGMRIKTAVVGAVYRKALLITNAARKSSTVGEIVNLMSVDAQRFMDLATYINMIWSAPLQVILALYFLWLSLGPSVLAGVAVMILMVPLNAVMAMKTKTYQVAHMKSKDNRIKLMNEILNGIKVLKLYAWELAFQDKVMSIRQEELKVLKKSAYLAAVGTFTWVCTPFLVALSTFAVFVTVDERNILDAKKAFVSLALFNILRFPLNILPMVISSIVQASVSLKRLRIFLSHEELEPDSIERRSIKSGEGNSITVKNATFTWARGEPPTLNGITFSIPEGALVAVVGQVGCGKSSLLSALLAEMDKVEGHVTLKGSVAYVPQQAWIQNDSLRENILFGHPLQENYYKAVMEACALLPDLEILPSGDRTEIGEKGVNLSGGQKQRVSLARAVYSNSDIYLFDDPLSAVDAHVGKHIFEKVVGPMGLLKNKTRILVTHGISYLPQVDVIIVMSGGKISEMGSYQELLDRDGAFAEFLRTYANAEQDLASEDDSVSGSGKESKPVENGMLVTDTVGKHLQRHLSNSSSHSGDTSQQHSSIAELQKAGAKEETWKLMEADKAQTGQVQLSVYWNYMKAIGLFITFLSIFLFLCNHVSALASNYWLSLWTDDPPVVNGTQANRNFRLSVYGALGILQGAAIFGYSMAVSIGGIFASRRLHLDLLYNVLRSPMSFFERTPSGNLVNRFSKELDTVDSMIPQVIKMFMGSLFSVIGAVIIILLATPIAAVIIPPLGLVYFFVQRFYVASSRQLKRLESVSRSPVYSHFNETLLGVSVIRAFEEQERFIHQSDLKVDENQKAYYPSIVANRWLAVRLECVGNCIVLFAALFAVISRHSLSAGLVGLSVSYSLQITAYLNWLVRMSSEMETNIVAVERLKEYSETEKEAPWQIQETAPPSTWPHSGRVEFRDYCLRYREDLDLVLKHINVTIEGGEKVGIVGRTGAGKSSLTLGLFRINESAEGEIIIDGVNIAKIGLHNLRFKITIIPQDPVLFSGSLRMNLDPFSQYSDEEVWMALELAHLKGFVSALPDKLNHECAEGGENLSVGQRQLVCLARALLRKTKILVLDEATAAVDLETDNLIQSTIRTQFEDCTVLTIAHRLNTIMDYTRVIVLDKGEVRECGAPSELLQQRGIFYSMAKDAGLV
Take B1: the Km in data set [1] stood at 0.06 µM; in data set [2] it was 2.9 µM.
